# Experimental data published in article PMC9482650, “Quantitative fragmentomics allow affinity mapping of interactomes” (Nature Communications, 2022).
# B1: SHROOM4, Q9ULL8 (peptide)
# chain: ESLLLGPSNF
# B2: HPV35-E6, P27228 (peptide)
# chain: SKPTRRETEV
# B3: HPV59-E6, Q81964 (peptide)
# chain: QRQARSETLV
# Tests used:
# Assay in all cases: holdup assay
# Set-up in all cases: key: below the threshold = too weak to quantify, mostly under pKd 3.1 to 4
# MAST2, Q6P0Q8 = target: MAST2, Q6P0Q8
# LIN7A, O14910 = target: T1, LIN7A, O14910
# T1 sequence (O14910 103-200, limits assumed, looked up): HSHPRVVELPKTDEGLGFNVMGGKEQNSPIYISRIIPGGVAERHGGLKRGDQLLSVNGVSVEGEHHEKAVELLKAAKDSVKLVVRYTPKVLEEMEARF
# PARD3B_1, Q8TEW8 = target: T2, PARD3B_1, Q8TEW8
# T2 sequence (Q8TEW8 196-299, limits assumed, looked up): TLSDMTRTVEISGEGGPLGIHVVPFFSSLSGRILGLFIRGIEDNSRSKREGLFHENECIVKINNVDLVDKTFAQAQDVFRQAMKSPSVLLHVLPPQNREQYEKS
# LIN7B, Q9HAP6 = target: T3, LIN7B, Q9HAP6
# T3 sequence (Q9HAP6 88-185, limits assumed, looked up): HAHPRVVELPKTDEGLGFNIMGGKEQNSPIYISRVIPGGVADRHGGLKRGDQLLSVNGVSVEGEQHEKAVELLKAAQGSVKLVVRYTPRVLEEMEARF
# GRIP2_5, Q9C0E4 = target: GRIP2_5, Q9C0E4
# Sequence of GRIP2_5, Q9C0E4 (Q9C0E4 544-642): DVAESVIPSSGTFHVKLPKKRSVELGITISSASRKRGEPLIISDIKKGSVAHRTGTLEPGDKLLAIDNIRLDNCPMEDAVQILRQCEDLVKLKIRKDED
# GRIP2_7, Q9C0E4 = target: GRIP2_7, Q9C0E4
# Sequence of GRIP2_7, Q9C0E4 (Q9C0E4 934-1023): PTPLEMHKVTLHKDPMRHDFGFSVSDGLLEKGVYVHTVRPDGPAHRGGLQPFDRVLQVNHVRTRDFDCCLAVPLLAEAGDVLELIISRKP
# MPDZ_5, O75970 = target: T4, MPDZ_5, O75970
# T4 sequence (O75970 695-796, limits assumed, looked up): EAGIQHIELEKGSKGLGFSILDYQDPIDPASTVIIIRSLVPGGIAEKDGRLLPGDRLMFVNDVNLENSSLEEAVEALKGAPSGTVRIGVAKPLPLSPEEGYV
# FRMPD4, Q14CM0 = target: FRMPD4, Q14CM0
# Sequence of FRMPD4, Q14CM0 (Q14CM0 67-160): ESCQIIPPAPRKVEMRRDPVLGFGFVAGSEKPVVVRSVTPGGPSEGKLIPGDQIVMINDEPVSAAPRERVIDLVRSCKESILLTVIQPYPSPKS
# GRASP, Q7Z6J2 = target: GRASP, Q7Z6J2
# Sequence of GRASP, Q7Z6J2 (Q7Z6J2 96-193): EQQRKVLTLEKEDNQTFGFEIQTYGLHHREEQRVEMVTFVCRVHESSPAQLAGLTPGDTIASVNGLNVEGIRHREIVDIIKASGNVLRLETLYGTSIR
# PCLO, Q9Y6V0 = target: T5, PCLO, Q9Y6V0
# T5 sequence (Q9Y6V0 4491-4600, limits assumed, looked up): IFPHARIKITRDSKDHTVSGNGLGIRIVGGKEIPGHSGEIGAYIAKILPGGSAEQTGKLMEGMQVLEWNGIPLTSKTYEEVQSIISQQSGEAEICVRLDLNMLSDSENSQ
# DLG3_3, Q92796 = target: T6, DLG3_3, Q92796
# T6 sequence (Q92796 374-475, limits assumed, looked up): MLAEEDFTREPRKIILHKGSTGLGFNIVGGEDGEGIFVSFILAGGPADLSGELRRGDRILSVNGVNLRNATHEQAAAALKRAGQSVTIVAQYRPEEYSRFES
# MAGI3_2, Q5TCQ9 = target: MAGI3_2, Q5TCQ9
# Sequence of MAGI3_2, Q5TCQ9 (Q5TCQ9 398-503): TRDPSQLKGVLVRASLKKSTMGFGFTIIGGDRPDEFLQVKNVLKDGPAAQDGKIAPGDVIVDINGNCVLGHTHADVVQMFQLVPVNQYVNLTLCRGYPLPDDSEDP
# DLG2_2, Q15700 = target: DLG2_2, Q15700
# Sequence of DLG2_2, Q15700 (Q15700 189-283): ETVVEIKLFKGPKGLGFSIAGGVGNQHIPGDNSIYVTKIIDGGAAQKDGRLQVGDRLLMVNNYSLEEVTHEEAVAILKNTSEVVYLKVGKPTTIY
# LNX1_3, Q8TBB1 = target: LNX1_3, Q8TBB1
# Sequence of LNX1_3, Q8TBB1 (Q8TBB1 500-596): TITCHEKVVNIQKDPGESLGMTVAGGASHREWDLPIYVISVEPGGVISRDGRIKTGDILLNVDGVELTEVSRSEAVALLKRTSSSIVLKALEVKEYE
# Inadl_5, Q8NI35 = target: Inadl_5, Q8NI35
# Sequence of Inadl_5, Q8NI35 (Q8NI35 673-780): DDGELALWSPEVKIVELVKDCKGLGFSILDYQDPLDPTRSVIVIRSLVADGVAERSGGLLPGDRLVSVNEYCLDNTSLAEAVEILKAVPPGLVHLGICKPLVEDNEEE
# TJP1_3, Q07157 = target: TJP1_3, Q07157
# Sequence of TJP1_3, Q07157 (Q07157 416-512): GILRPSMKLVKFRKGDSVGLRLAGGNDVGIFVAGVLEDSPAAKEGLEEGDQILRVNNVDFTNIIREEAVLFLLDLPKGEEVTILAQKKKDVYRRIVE
# TX1BP3, O14907 = target: T7, TX1BP3, O14907
# T7 sequence (O14907 10-122, limits assumed, looked up): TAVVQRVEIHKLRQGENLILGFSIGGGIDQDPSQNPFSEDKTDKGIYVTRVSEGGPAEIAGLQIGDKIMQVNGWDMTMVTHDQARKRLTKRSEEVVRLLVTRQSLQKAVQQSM
# Inadl_10, Q8NI35 = target: Inadl_10, Q8NI35
# Sequence of Inadl_10, Q8NI35 (Q8NI35 1673-1763): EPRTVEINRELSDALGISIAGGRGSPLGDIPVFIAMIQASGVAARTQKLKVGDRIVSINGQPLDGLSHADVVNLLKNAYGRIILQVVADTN
# PICK1, Q9NRD5 = target: PICK1, Q9NRD5
# Sequence of PICK1, Q9NRD5 (Q9NRD5 17-115): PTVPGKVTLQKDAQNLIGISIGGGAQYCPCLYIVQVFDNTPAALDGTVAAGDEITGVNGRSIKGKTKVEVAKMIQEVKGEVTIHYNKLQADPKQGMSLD
# DLG1_2, Q12959 = target: DLG1_2, Q12959
# GRIP2_3, Q9C0E4 = target: GRIP2_3, Q9C0E4
# Sequence of GRIP2_3, Q9C0E4 (Q9C0E4 238-339): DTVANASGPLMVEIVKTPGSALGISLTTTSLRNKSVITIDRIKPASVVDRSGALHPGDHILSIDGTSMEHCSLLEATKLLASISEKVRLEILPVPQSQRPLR
# DLG1_3, Q12959 = target: DLG1_3, Q12959
# DLG1_1, Q12959 = target: DLG1_1, Q12959
# LDB3, O75112 = target: LDB3, O75112
# Sequence of LDB3, O75112 (O75112 1-94): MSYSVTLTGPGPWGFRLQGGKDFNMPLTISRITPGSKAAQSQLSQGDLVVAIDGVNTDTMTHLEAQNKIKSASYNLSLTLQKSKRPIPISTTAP
# PDZD7_3, Q9H5P4 = target: T8, PDZD7_3, Q9H5P4
# T8 sequence (Q9H5P4 857-944, limits assumed, looked up): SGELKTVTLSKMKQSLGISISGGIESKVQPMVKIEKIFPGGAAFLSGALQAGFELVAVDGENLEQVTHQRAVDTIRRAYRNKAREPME
# IL16_3, Q14005 = target: IL16_3, Q14005
# Sequence of IL16_3, Q14005 (Q14005 1107-1207): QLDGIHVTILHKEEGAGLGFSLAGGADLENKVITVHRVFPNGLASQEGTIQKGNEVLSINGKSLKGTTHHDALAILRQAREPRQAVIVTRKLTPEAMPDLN
# SNTG2, Q9NY99 = target: T9, SNTG2, Q9NY99
# T9 sequence (Q9NY99 68-166, limits assumed, looked up): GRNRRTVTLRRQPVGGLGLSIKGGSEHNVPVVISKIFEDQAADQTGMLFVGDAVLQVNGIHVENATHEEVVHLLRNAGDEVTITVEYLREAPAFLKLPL
# ARHGAP21, Q5T5U3 = target: T10, ARHGAP21, Q5T5U3
# T10 sequence (Q5T5U3 45-169, limits assumed, looked up): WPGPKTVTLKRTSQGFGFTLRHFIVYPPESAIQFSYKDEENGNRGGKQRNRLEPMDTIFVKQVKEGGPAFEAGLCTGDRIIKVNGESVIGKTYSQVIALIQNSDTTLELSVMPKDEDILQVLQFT
# [1] = plain residues with an end cap or a label only (N-terminal biotin on a linker: ahx)
# [2] = plain residues with an end cap or a label only (N-terminal biotin on a linker: ttds)
# Sequence of MAST2, Q6P0Q8 (Q6P0Q8 1099-1202): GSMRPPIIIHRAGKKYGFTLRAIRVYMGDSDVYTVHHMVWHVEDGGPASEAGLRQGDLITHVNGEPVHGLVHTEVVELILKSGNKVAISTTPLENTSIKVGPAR
binder,measurement,setting,value
B1,pKd,"MAST2, Q6P0Q8; [1]",below the threshold
same,pKd,"LIN7A, O14910; [1]",below the threshold
same,pKd,"PARD3B_1, Q8TEW8; [1]",below the threshold
same,pKd,"LIN7B, Q9HAP6; [1]",below the threshold
same,pKd,"GRIP2_5, Q9C0E4; [1]",below the threshold
same,pKd,"GRIP2_7, Q9C0E4; [1]",below the threshold
same,pKd,"MPDZ_5, O75970; [1]",below the threshold
same,pKd,"FRMPD4, Q14CM0; [1]",below the threshold
same,pKd,"GRASP, Q7Z6J2; [1]",4.36
same,pKd,"PCLO, Q9Y6V0; [1]",below the threshold
same,pKd,"DLG3_3, Q92796; [1]",below the threshold
same,pKd,"MAGI3_2, Q5TCQ9; [1]",below the threshold
same,pKd,"DLG2_2, Q15700; [1]",below the threshold
same,pKd,"LNX1_3, Q8TBB1; [1]",below the threshold
same,pKd,"Inadl_5, Q8NI35; [1]",below the threshold
same,pKd,"TJP1_3, Q07157; [1]",below the threshold
same,pKd,"TX1BP3, O14907; [1]",below the threshold
same,pKd,"Inadl_10, Q8NI35; [1]",below the threshold
same,pKd,"PICK1, Q9NRD5; [1]",below the threshold
same,pKd,"DLG1_2, Q12959; [1]",below the threshold
same,pKd,"GRIP2_3, Q9C0E4; [1]",below the threshold
same,pKd,"DLG1_3, Q12959; [1]",below the threshold
same,pKd,"DLG1_1, Q12959; [1]",below the threshold
same,pKd,"LDB3, O75112; [1]",below the threshold
same,pKd,"PDZD7_3, Q9H5P4; [1]",below the threshold
same,pKd,"IL16_3, Q14005; [1]",below the threshold
same,pKd,"SNTG2, Q9NY99; [1]",below the threshold
same,pKd,"ARHGAP21, Q5T5U3; [1]",below the threshold
B2,pKd,"MAST2, Q6P0Q8; [2]",5.09
same,pKd,"LIN7A, O14910; [2]",below the threshold
same,pKd,"PARD3B_1, Q8TEW8; [2]",below the threshold
same,pKd,"LIN7B, Q9HAP6; [2]",3.49
same,pKd,"GRIP2_5, Q9C0E4; [2]",below the threshold
same,pKd,"GRIP2_7, Q9C0E4; [2]",below the threshold
same,pKd,"MPDZ_5, O75970; [2]",below the threshold
same,pKd,"FRMPD4, Q14CM0; [2]",below the threshold
same,pKd,"GRASP, Q7Z6J2; [2]",below the threshold
same,pKd,"PCLO, Q9Y6V0; [2]",below the threshold
same,pKd,"DLG3_3, Q92796; [2]",5.18
same,pKd,"MAGI3_2, Q5TCQ9; [2]",5.39
same,pKd,"DLG2_2, Q15700; [2]",5.27
same,pKd,"LNX1_3, Q8TBB1; [2]",below the threshold
same,pKd,"Inadl_5, Q8NI35; [2]",below the threshold
same,pKd,"TJP1_3, Q07157; [2]",below the threshold
same,pKd,"TX1BP3, O14907; [2]",4.93
same,pKd,"Inadl_10, Q8NI35; [2]",below the threshold
same,pKd,"PICK1, Q9NRD5; [2]",below the threshold
same,pKd,"DLG1_2, Q12959; [2]",5.64
same,pKd,"GRIP2_3, Q9C0E4; [2]",below the threshold
same,pKd,"DLG1_3, Q12959; [2]",4.77
same,pKd,"DLG1_1, Q12959; [2]",5.02
same,pKd,"LDB3, O75112; [2]",below the threshold
same,pKd,"PDZD7_3, Q9H5P4; [2]",4.3
same,pKd,"IL16_3, Q14005; [2]",below the threshold
same,pKd,"SNTG2, Q9NY99; [2]",3.95
same,pKd,"ARHGAP21, Q5T5U3; [2]",below the threshold
B3,pKd,"MAST2, Q6P0Q8; [2]",5.03
same,pKd,"LIN7A, O14910; [2]",below the threshold
same,pKd,"PARD3B_1, Q8TEW8; [2]",below the threshold
same,pKd,"LIN7B, Q9HAP6; [2]",below the threshold
same,pKd,"GRIP2_5, Q9C0E4; [2]",below the threshold
same,pKd,"GRIP2_7, Q9C0E4; [2]",below the threshold
same,pKd,"MPDZ_5, O75970; [2]",3.81
same,pKd,"FRMPD4, Q14CM0; [2]",below the threshold
same,pKd,"GRASP, Q7Z6J2; [2]",below the threshold
same,pKd,"PCLO, Q9Y6V0; [2]",below the threshold
same,pKd,"DLG3_3, Q92796; [2]",4.51
same,pKd,"MAGI3_2, Q5TCQ9; [2]",6.07
same,pKd,"DLG2_2, Q15700; [2]",4.97
same,pKd,"LNX1_3, Q8TBB1; [2]",below the threshold
same,pKd,"Inadl_5, Q8NI35; [2]",3.9
same,pKd,"TJP1_3, Q07157; [2]",below the threshold
same,pKd,"TX1BP3, O14907; [2]",4.05
same,pKd,"Inadl_10, Q8NI35; [2]",below the threshold
same,pKd,"PICK1, Q9NRD5; [2]",3.85
same,pKd,"DLG1_2, Q12959; [2]",5.56
same,pKd,"GRIP2_3, Q9C0E4; [2]",below the threshold
same,pKd,"DLG1_3, Q12959; [2]",3.82
same,pKd,"DLG1_1, Q12959; [2]",5.05
same,pKd,"LDB3, O75112; [2]",below the threshold
same,pKd,"PDZD7_3, Q9H5P4; [2]",4.72
same,pKd,"IL16_3, Q14005; [2]",below the threshold
same,pKd,"SNTG2, Q9NY99; [2]",4.05
same,pKd,"ARHGAP21, Q5T5U3; [2]",below the threshold
